B1: TPR t1 (parent)
chain: GACCAAUCUGCCCUCAGAGCUCGAGAACAUCUUCGGAUGCAGAGGAGGCAGGCUUCGGUGGCGCGAUAGCGCCAACGUCCUCAACCUCCAAUGCAUCCCACCACAUGAUGAUGCCUGAAGAGCCUUGGUUUUUUG

Variants of: B1
Experiment: polymerase ribozyme fitness, log enrichment relative to wild type (log ratio); higher = more active; in vitro selection for triplet polymerase activity
In short: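 Only genotypes with ≥10 input reads and ≥1 read per output were kept after Illumina sequencing of input and output libraries. These libraries were PCR-built, transcribed mutants of each subunit of a heterodimeric triplet polymerase ribozyme, each put through one triplicate in vitro selection round with frozen incubation at −7 °C, gel excision of extended constructs, streptavidin-bead capture and RT-PCR. Fitness is a logarithmic ratio of genotype enrichment to wild-type enrichment, from inverse-variance-weighted replicate averages, with the logarithm in base 2.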

Variant | polymerase ribozyme fitness (log ratio)
U96A C104U C124U | 0.864
C98A A100U U112A | -5.91
A100C U109A | -6.83
C98A C115U C123U | -7.67
G93A C114G | -2.93
A90U A103U U106C | -5.93
A95C U116G | -2.17
G93C C99U | -3.93
A90G C104U | -0.0421
C94A G110C G120C | -6.12
C94U C99U U125A | -3.61
A90C U106A | -1.42
C88G C104U C123G | 1.53
C99A G122A | -5.29
A91G C98U | -1.4
A100U U106C | -0.792
C98G U116A C124G | -4.52
C97G C123A | -4.41
A90C C101A | -2.32
C97G U112G | -5.5
A95U U130C | -0.986
C88A U92A G113A | -3.73
C94U C102U U126C | -2.66
C94A C102U | -4.66

Variant | polymerase ribozyme fitness (log ratio)
C89U G113U | -3.66
C99U A111C | -2.83
C99U A111G | -2.23
C94A U109A | -5.96
C97U C114U | -2.99
C97U C114A | -1.76
C97U C114G | -3.36
A95G G110U U130G U132A | -1.43
G93U C94U | -1.22
C89U C97U | -0.579
C89U C97G | -5.4
U96A C123U | -0.01
C98U C115A | -2
C88U G120A | -0.0108
G93U C101A G113U G117A | -6.98
C99U C115A | -3.86
C98U G110U | -2.66
A90U U96C C115U | -1.64
C94A G127C | -2.37
A100C C124A | 0.995
C101A G110A | -2.55
C88A C123U G127U U131G | -0.279
A95U U96A C101G U106C C124A | -4.41
U87G A103C | -5.65

Variant | polymerase ribozyme fitness (log ratio)
U92A G128U | -4.84
C88G G110A | -1.15
A91U U96A | -2.42
C98G C124U | -5.51
C97U U112C A121C | 1.3
A90G U92G G107U C114U G127U | -5.63
A100C A121G | 1.39
G93C C124U U125C | -1.05
U96C G110C | -4
C89A A119U | -1.88
U92C C101U C104U | -0.793
C89U A121G | -0.907
A95G C97U A105U G122U | -4.71
C98A G120U | -4.6
C97U U133A | -0.824
C89U A105G | -2.76
C89G U106A | -2.51
U96G A108G G117A | -4.91
C97A C102U | -4.94
C88A G110A | -1.49
C98U G117A | -2.99
C98U U116A | -4.71
C88A C124A | 0.767
C88G G117A | -2.35

Variant | polymerase ribozyme fitness (log ratio)
A91G U129A | -2.34
A100U U133G | -0.612
A100U U133A | -0.657
C101A G117A | -2.65
C101A G117C | -5.15
C99U G110C | -6.69
C89U U92C U112G G127U U130A | -3.09
A91G G113U | -3.39
U87G C123A | 0.557
U96G G110U G120U U132C | -4.08
C88A A105C | -2.46
U96G G110U | -2.73
A91U G128A | -3.34
A95G U112A A119U | 0.842
U87A C99U G110U | -5.56
G93U A121U U131G | 0.33
C94A A105C | -4.8
C94A A105U | -3.27
G93U G135C | -0.696
C98U C104U U112A | -2.26
U96C C102U G113C | -4.89
A100C C102A | -2.98
C97U G122A | -1.08
C89U U92G | -1.82

Variant | polymerase ribozyme fitness (log ratio)
G93U U133C | -1.17
C99U A119G | -1.65
C97U C104A | -2.32
A90G U126A | -1.39
U87A A118G | 0.111
A95U G127A | -2.95
A100G G120U | -3.45
A91G A100C | -2.5
U92A U130G U131G | -5.8
U92A G113A | -2.8
U92A G113C | -3.49
U96A A119U | -1.13
C97A U131A | -3.97
A100U U116C | -2.35
U92A U129G | -4.28
U92A U129A | -4.29
U87A C89G | -2.18
U92A U112C A121C | -0.365
G93C G122A | -0.79
G93C U131G | -1.28
G93C U131A | -1.05
G93U C123U | 0.528
A90U U106G | -4.63
A90U U106A | -1.76

Variant | polymerase ribozyme fitness (log ratio)
C94U A121G | 1.59
G93A G113A | -0.607
U92A G120A | -2.17
U92A G120U | -2.93
C101G C102U G117A | -7.15
A90C U112A | -1.21
A90C U112G | -0.757
C99U C114U | -4.12
A95U U109A U130G | -6.07
C94G C114U G128C | -3.47
C99A C123A | -5.64
C97U U112A | 0.716
U92G C101U A103U U109A | -6.74
C97A A111G | -5.96
C97A A111U | -5.77
C94G C115A | -0.789
C94A G117C | -4.31
C101A A105C A118U | -4.79
A90C G117U | -3.98
C89A G120C | -0.369
G93U C104A | -2.9
U96A C99A U106G | -5.31
A91C G117C | -1.71
C88A G93C | -2.45

Variant | polymerase ribozyme fitness (log ratio)
A95G U125A | -0.382
G93A A95U C102A | -4.21
A95C | -0.933
A95U | -0.816
A95G | 0.119
C88A A95U C102A G120A | -3.23
C89A A90G | -1.53
C97U G120U C124A | 0.793
C88A G107A | -5.92
G93A U132A G135U | -0.722
C88A C102A | -2.16
A90U A100U | -2.77
A90U C97U C104A U109G C124A | -3.98
C94G G110A | -2.23
U92A G117U | -4.95
U92A C115U | -3.78
C89G G127A | -1.9
C88A C102A G107A A111C U116G C123G U125A | -6.39
C88G C89A | -1.75
C94G A100U G120A | -0.669
U87G A103C U106C C124G | -1.08
A95C C97U C101G | -3.36
U87A C123G | 1.66
